Reference: patent US20220282217A1 (BIONTECH US, published 2022)

Tests used:
[1] = molecular target: T1, HLA class I molecule A02.01; assay: pMHC-I dissociation half-life, 125I-b2m
T1 construct: Purified MHC class I complex; also called HLA-A02:01
In short: (§1)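 Biotinylated MHC-I heavy chain made in E. coli, captured on streptavidin plates and complexed with peptide and radiolabelled light chain. Dissociation started with excess unlabelled light chain at 37 °C. Stability is the half-life in hours from scintillation counts.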

[2] = molecular target: T1, HLA class I molecule A02.01; assay: competition binding assay with purified class I MHC: test peptide at varying concentrations displaces a radiolabeled reference peptide, read by size exclusion gel filtration; column 'Observed MHC Affinity (nM)'
Protocol: (§2) Peptides were incubated at varying concentrations with these complexes for 2 days, and the amount of remaining radiolabeled peptide bound to […] was measured using size exclusion gel-filtration.

[3] = molecular target: T2, HLA class I molecule A03.01; assay: competition with radiolabeled reference peptide on purified MHC I
T2 construct: Purified MHC class I complex; also called HLA-A03:01
Protocol: as §2

[4] = molecular target: T2, HLA class I molecule A03.01; assay: pMHC-I dissociation assay with 125I-labeled beta2m light chain at 37 C, scintillation counts; time in hours for half of the complexes to dissociate
Protocol: (§3) Briefly, synthetic genes encoding biotinylated MHC-I heavy and light chains are expressed in E. coli and purified from inclusion bodies using standard methods. […] These reactions are carried out in streptavidin coated microplates to bind the biotinylated MHC-I heavy chains to the surface and allow measurement of radiolabeled light chain to monitor complex formation. Dissociation is initiated by addition of higher concentrations of unlabeled light-chain and incubation at 37° C. Stability is defined as the length of time in hours it takes for half of the complexes to dissociate, as measured by scintillation counts.

[5] = molecular target: T3, HLA-A11.01 (human); assay: as above
T3 construct: Purified class I MHC
Protocol: as §3

[6] = molecular target: T3, HLA-A11.01; assay: competition binding assay with purified class I MHC: test peptide at varying concentrations displaces a radiolabeled reference peptide, read by size exclusion gel filtration; column 'Observed MHC Affinity (nM)'
Protocol: as §2

[7] = molecular target: HLA-A02.01 (human); assay: pMHC-I complex dissociation at 37 C, 125I-b2m, half-life
In short: as §1

[8] = molecular target: T4, HLA-A03.01 (human); assay: as above
T4 construct: As for HLA-A02.01
In short: as §1

[9] = molecular target: HLA-A02.01 (human); assay: competition vs radiolabeled reference peptide on purified MHC I, gel filtration
Protocol: as §2

[10] = molecular target: T4, HLA-A03.01; assay: as above
Protocol: as §2

[11] = molecular target: T5, HLA-B07.02 (human); assay: pMHC-I complex dissociation at 37 C, 125I-b2m, half-life
T5 construct: As for HLA-A02.01
In short: as §1

[12] = molecular target: T5, HLA-B07.02; assay: competition vs radiolabeled reference peptide on purified MHC I, gel filtration
Protocol: as §2

[13] = molecular target: T6, HLA class I molecule B07.02; assay: pMHC-I dissociation half-life, 125I-b2m
T6 construct: Purified MHC class I complex; also called HLA-B07:02
In short: as §1

[14] = molecular target: T7, HLA class I molecule A24.02; assay: pMHC-I dissociation half-life, 125I-b2m
T7 construct: Purified MHC class I complex; also called HLA-A24:02
In short: as §1

[15] = molecular target: T1, HLA class I molecule A02.01; assay: competition with radiolabeled reference peptide on purified MHC I
Protocol: as §2

[16] = molecular target: T6, HLA class I molecule B07.02; assay: as above
Protocol: as §2

[17] = molecular target: T7, HLA class I molecule A24.02; assay: as above
Protocol: as §2

[18] = molecular target: T2, HLA class I molecule A03.01; assay: pMHC-I dissociation half-life, 125I-b2m
In short: as §1

[19] = molecular target: T8, HLA class I molecule B08.01; assay: pMHC-I dissociation half-life, 125I-b2m
T8 construct: Purified MHC class I complex; also called HLA-B08:01
In short: as §1

[20] = molecular target: T8, HLA class I molecule B08.01; assay: competition with radiolabeled reference peptide on purified MHC I
Protocol: as §2

[21] = molecular target: T9, HLA-A02.01 (human); assay: pMHC-I dissociation half-life, 125I-b2m
T9 construct: Purified class I MHC
In short: as §1

[22] = molecular target: T10, HLA-B08.01 (human); assay: pMHC-I dissociation half-life, 125I-b2m
T10 construct: Purified class I MHC
In short: as §1

[23] = molecular target: T11, HLA-B07.02 (human); assay: pMHC-I dissociation half-life, 125I-b2m
T11 construct: Purified class I MHC
In short: as §1

[24] = molecular target: T12, HLA-A03.01 (human); assay: pMHC-I dissociation half-life, 125I-b2m
T12 construct: Purified class I MHC
In short: as §1

[25] = molecular target: T10, HLA-B08.01; assay: competition with radiolabeled reference peptide, purified MHC I
Protocol: as §2

[26] = molecular target: T11, HLA-B07.02; assay: as above
Protocol: as §2

[27] = molecular target: T12, HLA-A03.01; assay: as above
Protocol: as §2

[28] = molecular target: T13, HLA-A24.02 (human); assay: as above
T13 construct: Purified class I MHC
Protocol: as §2

[29] = molecular target: T13, HLA-A24.02; assay: pMHC-I dissociation half-life, 125I-b2m
In short: as §1

[30] = molecular target: T9, HLA-A02.01; assay: competition with radiolabeled reference peptide, purified MHC I
Protocol: as §2

[31] = molecular target: T14, HLA-A01.01 (human); assay: as above
T14 construct: Purified class I MHC
Protocol: as §2

[32] = molecular target: T15, HLA-A01:01 class I MHC molecule (human); assay: pMHC-I dissociation at 37 C, 125I-labeled b2m, scintillation counts
T15 construct: heavy chain biotinylated and made in E. coli in the stability assay
Protocol: as §3

[33] = molecular target: HLA-A03:01 class I MHC molecule (human); assay: as above
Protocol: as §3

[34] = molecular target: T15, HLA-A01:01 class I MHC molecule; assay: competition with a radiolabeled reference peptide for purified MHC I, gel filtration; 'Affinity (nM)'
Protocol: as §2

[35] = molecular target: HLA-A03:01 class I MHC molecule (human); assay: as above
Protocol: as §2

[36] = molecular target: HLA-A11:01 class I MHC molecule (human); assay: competition with a radiolabeled reference peptide for purified MHC I, gel filtration; 'Affinity (nM)'; affinity assay, column 'Affinity (nM)'
Protocol: as §2

[37] = molecular target: HLA-A24:02 class I MHC molecule (human); assay: pMHC-I dissociation at 37 C, 125I-labeled b2m, scintillation counts
Protocol: as §3

[38] = molecular target: HLA-A24:02 class I MHC molecule (human); assay: competition with a radiolabeled reference peptide for purified MHC I, gel filtration; 'Affinity (nM)'
Protocol: as §2

[39] = molecular target: HLA-B08:01 class I MHC molecule (human); assay: pMHC-I dissociation at 37 C, 125I-labeled b2m, scintillation counts
Protocol: as §3

[40] = molecular target: HLA-B08:01 class I MHC molecule (human); assay: competition with a radiolabeled reference peptide for purified MHC I, gel filtration; 'Affinity (nM)'
Protocol: as §2

[41] = molecular target: T16, HLA-A02.01 class I MHC molecule (prepared complex) (human); assay: dissociation of peptide-MHC-I complex at 37 C, 125I-labelled b2m, scintillation
Protocol: as §3

[42] = molecular target: T16, HLA-A02.01 class I MHC molecule …; assay: displacement of radiolabeled reference peptide from class I MHC, gel filtration; 'Affinity (nM)'
Protocol: as §2

SMLTGPPARV (also called GATA3 . . ; CSNH) was tested, and the “Stability (T1/2 (h))” value [1] was 21.7 h and the IC50 [2] was 14 nM.

For KIMFATLQR (also called GATA3 . . ; CSNH), the IC50 [3] was 2.5 nM, the “Observed MHC Stability” value [4] was 5.6 h and the “Observed MHC Stability” value [5] was 8.9 h. For the same binder, the IC50 [6] was 23 nM.

KLFSCLSFL (also called C15ORF40(+1)) was tested, and the “Stability (T1/2 (h))” value [7] was 14.3 h, the “Stability (T1/2 (h))” value [8] was 0.8 h and the IC50 [9] was 6 nM. For the same binder, the IC50 [10] was 308 nM.

B1: KLSDSRTAL (peptide)
peptide: KLSDSRTAL
notes: also called FRG1B, I1OT (so in the source); FRG1B, I10T
B1 was tested, and the “Stability (T1/2 (h))” value [7] was 2.8 h, the “Stability (T1/2 (h))” value [11] was 6.8 h and the IC50 [12] was 9 nM.

For ALSASNSCF (also called FRG1B, L52S), the “Stability (T1/2 (h))” value [1] was 0.3 h, the “Stability (T1/2 (h))” value [13] was 0 h and the “Stability (T1/2 (h))” value [14] was 0.2 h. For the same binder, the IC50 [15] was 728 nM, the IC50 [16] was 684 nM and the IC50 [17] was 16300 nM.

KVSRENTSPK (also called HER2, L7555) was tested, and the “Stability (T1/2 (h))” value [18] was 13.5 h and the IC50 [3] was 7 nM.

For FQMQPLSLM (also called JAK1(-1)), the “Stability (T1/2 (h))” value [1] was 0.3 h, the “Stability (T1/2 (h))” value [19] was 0 h and the “Stability (T1/2 (h))” value [13] was 0 h. For the same binder, the “Stability (T1/2 (h))” value [14] was 0 h, the IC50 [15] was 553 nM and the IC50 [17] was 14600 nM.

In the case of YQQQQQSDL (also called MYC, E39D), the “Stability (T1/2 (h))” value [1] is reported as 0.4 h, the “Stability (T1/2 (h))” value [19] is reported as 0 h and the IC50 [15] is reported as 799 nM. The IC50 [20] was 18900 nM.

KLMLLRLNL (also called SEC31A(-1)) was tested, and the “Stability (T1/2 (h))” value [21] was 16.9 h, the “Stability (T1/2 (h))” value [22] was 0 h and the “Stability (T1/2 (h))” value [23] was 1.5 h. The “Stability (T1/2 (h))” value [24] was 0 h, the IC50 [25] was 58.4 nM and the IC50 [26] was 133 nM. It also gave an IC50 [27] of 210 nM.

Binder KLRSPLWIF (also called SMAP1(-1)) has an IC50 [28] of 828 nM.

MNWRPILTII (also called TP53, R248W) was tested, and the “Stability (T1/2 (h))” value [21] was 0.4 h, the “Stability (T1/2 (h))” value [29] was 0 h and the IC50 [30] was 1030 nM. It also gave an IC50 [28] of 44900 nM.

VMSDTTYKIY (also called TTK(-1)) showed an IC50 [31] of 376 nM.

MSDTTYKIY (also called TTK(-1)) was tested, and the IC50 [31] was 10.2 nM.

YMANGSLLNY [BTK, C481S peptide YMANGSLLNY] was tested, and the “Stability (half-life (hr.))” value [32] was 52 min, the “Stability (half-life (hr.))” value [33] was 16.7 min and the IC50 [34] was 13.2 nM. The IC50 [35] was 95.9 nM and the IC50 [36] was 974 nM.

With MANGSLLNY [BTK, C481S peptide MANGSLLNY] the “Stability (half-life (hr.))” value [32] was 13 min, the “Stability (half-life (hr.))” value [33] was 14.3 min and the IC50 [35] was 35.6 nM. For the same binder, the IC50 [36] was 536 nM.

EYMANGSLL [BTK, C481S peptide EYMANGSLL] was tested, and the “Stability (half-life (hr.))” value [37] was 343 min and the IC50 [38] was 4.96 nM.

SLLNYLREM [BTK_C481S peptide SLLNYLREM] was tested, and the “Stability (half-life (hr.))” value [39] was 0 h and the IC50 [40] was 960 nM.

With MANGSLLNYL [BTK_C481S peptide MANGSLLNYL] the “Stability (half-life (hr.))” value [39] was 0 h.

B2: EGFR_T790M peptide LIMQLMPFGC (peptide)
peptide: LIMQLMPFGC
notes: synthetic peptide holding the EGFR T790M mutation
With B2 the “Stability (half-life (hr.))” value [41] was 22.9 min and the IC50 [42] was 132 nM.
